Substitutions are numbered along the chain they refer to. Where “and” joins values, the source holds several entries; their conditions need not be identical. Identical values can stand only once. Like-named read-outs stand apart in the source and are kept apart here.
T1: FBF-2 RBD+CT (Caenorhabditis elegans, UniProt Q09312 164-632)
T1 sequence: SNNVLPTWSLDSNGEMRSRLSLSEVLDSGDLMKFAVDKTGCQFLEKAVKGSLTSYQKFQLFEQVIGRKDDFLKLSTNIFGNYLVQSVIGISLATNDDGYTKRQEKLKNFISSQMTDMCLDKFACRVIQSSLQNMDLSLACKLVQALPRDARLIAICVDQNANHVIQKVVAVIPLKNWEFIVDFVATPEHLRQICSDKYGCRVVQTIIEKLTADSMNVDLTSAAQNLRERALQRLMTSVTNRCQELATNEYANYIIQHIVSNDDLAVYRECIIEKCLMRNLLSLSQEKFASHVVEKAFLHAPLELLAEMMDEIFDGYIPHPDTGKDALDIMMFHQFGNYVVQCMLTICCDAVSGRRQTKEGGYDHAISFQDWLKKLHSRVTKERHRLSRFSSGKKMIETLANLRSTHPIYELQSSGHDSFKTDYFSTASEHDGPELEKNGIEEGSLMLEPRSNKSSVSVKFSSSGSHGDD

T2: FBF-2 RBD (FBF-2 residues 164-575) (C. elegans, UniProt Q09312 164-575)
T2 chain: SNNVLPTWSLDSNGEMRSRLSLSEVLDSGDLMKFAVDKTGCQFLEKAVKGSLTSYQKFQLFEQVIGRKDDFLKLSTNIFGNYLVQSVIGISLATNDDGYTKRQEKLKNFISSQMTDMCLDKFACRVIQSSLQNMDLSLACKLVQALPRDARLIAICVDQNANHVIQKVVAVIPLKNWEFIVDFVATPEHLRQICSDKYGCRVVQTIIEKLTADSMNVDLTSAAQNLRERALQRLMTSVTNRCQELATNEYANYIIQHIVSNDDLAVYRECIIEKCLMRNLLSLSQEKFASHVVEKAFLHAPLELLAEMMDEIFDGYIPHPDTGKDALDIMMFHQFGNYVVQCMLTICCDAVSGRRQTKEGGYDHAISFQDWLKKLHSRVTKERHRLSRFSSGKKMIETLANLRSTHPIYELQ

T3: FBF-2 RBD + CT L610A (C. elegans, UniProt Q09312 164-632, L610A)
T3 sequence: T1 sequence with L447A

T4: FBF-2 RBD + CT (FBF-2 residues 164-632) (C. elegans, UniProt Q09312 164-632)
T4 chain: T1 sequence

T5: FBF-2 RBD + CT Loop6A (C. elegans, UniProt Q09312 164-632, E592A | D594A | E597A | E599A | E604A | E605A)
T5 sequence: T1 sequence with E429A, D431A, E434A, E436A, E441A, E442A

T6: FBF-2 RBD + CT Loop6A (C. elegans, UniProt Q09312 164-632, E592A | D594A | E597A | E599A | E604A | E605A)
T6 construct: source: E. coli, expressed and purified like wild type proteins; not shown: His6-SUMO, N-terminal, cleaved
T6 sequence (looked up): T1 sequence with E429A, D431A, E434A, E436A, E441A, E442A

T7: FBF-2 RBD + CT L610A (C. elegans, UniProt Q09312 164-632, L610A)
T7 construct: source: E. coli, expressed and purified like wild type proteins; not shown: His6-SUMO, N-terminal, cleaved
T7 sequence (looked up): T1 sequence with L447A

T8: FBF-2 RBD+CT L610A (Caenorhabditis elegans, UniProt Q09312 164-632, L610A)
T8 sequence: T1 sequence with L447A

T9: FBF-2 RBD (Caenorhabditis elegans, UniProt Q09312 164-575)
T9 sequence: T2 chain

T10: FBF-2 RBD+CT Loop6A (Caenorhabditis elegans, UniProt Q09312 164-632, E592A;D594A;E597A;E599A;E604A;E605A)
T10 sequence: T1 sequence with E429A, D431A, E434A, E436A, E441A, E442A

T11: FBF-2 RBD+CT Y479A (Caenorhabditis elegans, UniProt Q09312 164-632, Y479A)
T11 sequence: T1 sequence with Y316A

B1: cFBE RNA (ssRNA)
RNA: CUGUGAAUG
B2: LST-1 B peptide (LST-1 residues 67-98) (peptide, UniProt P91820 67-98, looked up)
chain: SSSPQQRSGLRSQKLHLTYIEKNKRVRAMIPQ
notes: The tag was cleaved with Ulp1 protease; also called LST-1^67–98; source: E. coli, purified (Ni-NTA, heparin, Superdex 75); not shown: His6-SUMO, N-terminal, cleaved
B3: gld-1 FBEa RNA (SPR) (ssRNA)
RNA: AUCAUGUGCCAUACA
B4: FBF-2 RBD + CT (FBF-2 residues 164-632) (domain or fragment, C. elegans, UniProt Q09312 164-632, looked up)
chain: T1 sequence
notes: The tag was cleaved with Ulp1 protease; also called FBF-2^164–632; wild type RBD + CT; source: E. coli BL21-CodonPlus (DE3)-RIL, purified (Ni-NTA, heparin, Superdex 75); not shown: His6-SUMO, N-terminal, cleaved

Columns and labels:
[1] = target: T1, FBF-2 RBD+CT; assay: crystal structure; 2.1 A; 30% PEG 400, 0.1 M Tris pH 8.5; EMSA: FBF-2 in 20 mM HEPES pH 7.4, 150 mM NaCl, 0.5 mM TCEP mixed 1:1 with 5 nM final RNA in 10 mM HEPES pH 7.4, 0.01% Tween 20, 0.1 mg/ml BSA, 0.1 mg/ml yeast; settings: protein: recombinant; tags: none (His6-SUMO removed with Ulp1)
[2] = target: T2, FBF-2 RBD (FBF-2 residues 164-575); assay: ITC
[3] = target: T2, FBF-2 RBD (FBF-2 residues 164-575); assay: ITC
[4] = target: T3, FBF-2 RBD + CT L610A; assay: ITC
[5] = target: T4, FBF-2 RBD + CT (FBF-2 residues 164-632); assay: ITC
[6] = target: T5, FBF-2 RBD + CT Loop6A; assay: ITC
[7] = target: B4; assay: ITC; peptide (100–400 µM) titrated from the syringe into the cell containing FBF-2 (10–30 µM); 20 °C; 20 mM HEPES pH 7.4, 150 mM NaCl, 0.5 mM TCEP; no RNA; one-site model; mean of two replicates; settings: both partners purified
[8] = target: T6, FBF-2 RBD + CT Loop6A; assay: as above; settings: both partners purified
[9] = target: T7, FBF-2 RBD + CT L610A; assay: as above; settings: both partners purified
[10] = target: B4; assay: cell-based or functional assay
[11] = target: T8, FBF-2 RBD+CT L610A; assay: SPR; kon 15.5e4 M-1 s-1, koff 1.36e-3 s-1; EMSA: FBF-2 in 20 mM HEPES pH 7.4, 150 mM NaCl, 0.5 mM TCEP mixed 1:1 with 5 nM final RNA in 10 mM HEPES pH 7.4, 0.01% Tween 20, 0.1 mg/ml BSA, 0.1 mg/ml yeast; settings: protein: recombinant; tags: none (His6-SUMO removed with Ulp1); label: 3'-biotin
[12] = target: T9, FBF-2 RBD; assay: SPR; kon 13.6e4 M-1 s-1, koff 0.86e-3 s-1; EMSA: FBF-2 in 20 mM HEPES pH 7.4, 150 mM NaCl, 0.5 mM TCEP mixed 1:1 with 5 nM final RNA in 10 mM HEPES pH 7.4, 0.01% Tween 20, 0.1 mg/ml BSA, 0.1 mg/ml yeast; settings: protein: recombinant; tags: none (His6-SUMO removed with TEV protease); label: 3'-biotin
[13] = target: T10, FBF-2 RBD+CT Loop6A; assay: SPR; kon 10.9e4 M-1 s-1, koff 0.94e-3 s-1; EMSA: FBF-2 in 20 mM HEPES pH 7.4, 150 mM NaCl, 0.5 mM TCEP mixed 1:1 with 5 nM final RNA in 10 mM HEPES pH 7.4, 0.01% Tween 20, 0.1 mg/ml BSA, 0.1 mg/ml yeast; settings: protein: recombinant; tags: none (His6-SUMO removed with Ulp1); label: 3'-biotin
[14] = target: T11, FBF-2 RBD+CT Y479A; assay: SPR; kon 10.2e4 M-1 s-1, koff 1.18e-3 s-1; EMSA: FBF-2 in 20 mM HEPES pH 7.4, 150 mM NaCl, 0.5 mM TCEP mixed 1:1 with 5 nM final RNA in 10 mM HEPES pH 7.4, 0.01% Tween 20, 0.1 mg/ml BSA, 0.1 mg/ml yeast; settings: protein: recombinant; tags: none (His6-SUMO removed with Ulp1); label: 3'-biotin
[15] = target: T1, FBF-2 RBD+CT; assay: SPR; kon 7.1e4 M-1 s-1, koff 4.42e-3 s-1; EMSA: FBF-2 in 20 mM HEPES pH 7.4, 150 mM NaCl, 0.5 mM TCEP mixed 1:1 with 5 nM final RNA in 10 mM HEPES pH 7.4, 0.01% Tween 20, 0.1 mg/ml BSA, 0.1 mg/ml yeast; settings: protein: recombinant; tags: none (His6-SUMO removed with Ulp1); label: 3'-biotin
[16] = target: the molecule itself; assay: crystal structure; FBF-2 RBD + CT with cFBE RNA (5′-CUGUGAAUG-3′), 2.1 Å; CT residues 607-613 seen bound to the RBD of the same construct (intramolecular by the paper's words)

B1
binding result [1]: binds

B2
Kd [2]: 50 nM
Kd [3]: 46 nM and 45 nM
Kd [4]: 46 nM and 77 nM
Kd [5]: 2100 nM and 3300 nM
Kd [6]: 1300 nM and 1100 nM
Kd [7]: 2700 nM
binding result [8]: binds
Kd [9]: 60 nM
RNA-binding affinity of FBF-2 RBD + CT for gld-1 FBEa RNA by EMSA in the presence of 50 µM LST-1 B [10]: 5 fold

B3
Kd [11]: 9.4 ± 3.6 nM
Kd [12]: 6.6 ± 2.3 nM
Kd [13]: 9.5 ± 4.2 nM
Kd [14]: 12.9 ± 6.4 nM
Kd [15]: 65.1 ± 21.1 nM

B4
binding result [16]: binds
